Results published in patent US9598481B2 (priority 2012, dated 2017).
Numbering of substitutions follows the chain as printed. Where “and” joins values, the source holds several entries; their conditions need not be identical. Equal entries are not always repeated.

B1: mAb 39.29 NCv1: anti-hemagglutinin monoclonal antibody; VL SEQ ID NO:144, VH SEQ ID NO:142 (antibody, V domains shown)
VH: QVQLVESGGGVVQPGKSPRLSCAASGPTFSSYAVHWVRQAPGKGLEWVTLISYDGANQYYADSVKGRFTISRDNSKNTVYLQMNSLRPEDTAVYYCAVPGPVFGIFPPWSYFDNWGQGILVTVSS
VL: EIVLTQSPATLSVSPGERATLSCRASQVISHNLAWYQQKPGQAPRLLIYGASTRASGIPARFSGSGSGTDYTLTITSLQPEDFAVYYCQHYSNWPPRLTFGGGTKVEIK
B2: mAb9.01F3: phage-display derived anti-hemagglutinin monoclonal antibody; VL SEQ ID NO:166, VH SEQ ID NO:164 (antibody, V domains shown)
VH: QVQLVQSGAEVKQPGASVKVSCKASGYTFNAYYIHWVRQAPGQGLEWMGWINPNFGGTHYARKFQGRVTMTRDASINTAYMELDRLISDDTAVYYCVRWRAAAVIMDQFYKMDVWGQGTLVTVSS
VL: SSELTQPPSASGTPGQRVTISCSGSTSNIGYNPVSWYQQVPGTAPKLLIYSNTERPSGVPDRFSGSKSGTSASLAISGLQSEDEADYYCAAWDDTLNGPVFGGGTKVTVL
B3: mAb23.06C2: phage-display derived anti-hemagglutinin monoclonal antibody; VL SEQ ID NO:170, VH SEQ ID NO:168 (antibody, V domains shown)
VH: QVQLQESGPGLVKPSETLSLTCTVSGGLIGTGSYYWGWIRQTPGKGMEWIGSISYSGSTYYHPSLKSRVTISDDTSKNQLFLKLRSVTAADTAQYYCARYNWGIRYFDFWGRGTLVTVSS
VL: DIQLTQSPLSPPVTLGQPASISCRSSQSLLYTDGFTYLSWYHQRPGQSPRRLIYKISNRDSGVPDRFSGSGSGTDFTLKISRVEAEDVGVYYCMQATHWPLTFGEGTKVEIK
B4: mAb 36.89: anti-hemagglutinin monoclonal antibody; VL SEQ ID NO:162, VH SEQ ID NO:160 (antibody, V domains shown)
VH: QVQLVQSGAELKRPGASVKVSCKTSGYSFNNYGINWVRQAPGQGLEWMGWISAYTGNTHYAKNFEGRVTLTTDTSTSTAYMEVRSLRSDDSAVYFCARAMIQGVVTLYLRPGDYWGQGTLVTVSS
VL: DIVMTQSPSTLSASVGDRVTITCRASQSIGNWLAWYQQKPGKAPKLLIYKVSTLESGVPSRFSGSGSGTEFTLTINSLQPDDFATYYCQRYTSNSQGFTFGQGTKLEIK
B5: mAb 81.39 SVSH-NYP: anti-hemagglutinin monoclonal antibody; VL SEQ ID NO:117, VH SEQ ID NO:115 (antibody, V domains shown)
VH: EVQLVESGGGVVQPGRSLRLSCAASGFAFHNRAMHWVRQAPGKGLEWVALIYFDGSKQYYADSVKGRFTISRDNSKNTVFLQMNSLRPEDTAVYYCAVPGPIFGIFPPWSYFDHWGQGILVTVSS
VL: EIVLTQSPATLSVSPGERATLSCRASQSVSHNLAWYQQKPGQAPRLLVYSASTRATGIPARFSGSGSGTEFTLAISSLQSEDFAVYYCQHYTNYPPRLTFGGGSKVEIK
B6: mAb 81.39: anti-hemagglutinin monoclonal antibody 81.39, variant not specified in the competition ELISA (antibody, V domains shown)
VH: B5 VH
VL: B5 VL with Y94W
B7: mAb 81.39 B1C1: anti-hemagglutinin monoclonal antibody; VL SEQ ID NO:113, VH SEQ ID NO:111 (antibody, V domains shown)
VH: B5 VH with E1Q
VL: B5 VL with S30D, H31S, Y94W
B8: mAb 39.18 B11: anti-hemagglutinin monoclonal antibody; VL SEQ ID NO:156, VH SEQ ID NO:154 (antibody, V domains shown)
VH: EVQLVQSGAEVKKPGSSMKVSCKASGSIFSNYGISWVRQAPGQGLEWMGGIIPIFGAANYAQKFQGRVTITADESTSTVYMEVRSLRSEDTAVYYCARRQQLYKGYYHHWGQGTLVTVSS
VL: EIVLTQSPATLSVSPGERVTLSCRASQSVANNLAWYQQKPGQSPRLLIYGASTRDTGIPARFSGSGSGTEFTLTISSLQSEDFAVYYCQQYNNWPPMYTFGQGTKLEIK

Assays:
[1] = test system: H5N1 A/Vietnam/1203/04 influenza A virus; format: in vivo, ferrets (Mustela putorius furo)
[2] = test system: H3N2 A/Port Chalmers/1/1973; parameters: species or system DBA/2J mice; details: mouse, in vivo
[3] = test system: HIV pseudotype virus bearing hemagglutinin H5 from H5N1/Vietnam/1203/2004; format: cell-based
[4] = test system: H3N2 A/Aichi/2/1968; format: cell-based, influenza A virus; details: read-out: in vitro IC50
[5] = test system: H3N2 A/Hong Kong/1/1968; parameters: species or system DBA/2J mice; details: mouse
[6] = test system: H3N2 A/Port Chalmers/1/1973; format: cell-based, influenza A virus; details: read-out: in vitro IC50
[7] = test system: H3N2 A/Aichi/2/1968; parameters: species or system DBA/2J mice; details: mouse, in vivo
[8] = test system: Group1 influenza A virus strains; format: cell-based
[9] = test system: hemagglutinin H1 from A/NWS/1933; format: binding, influenza A virus
[10] = test system: hemagglutinin H3 from A/HK/8/1968; format: binding, influenza A virus
[11] = test system: Group2 influenza A virus strains; format: cell-based
[12] = read-out: EC50 competition with biotinylated mAb 39.29

Row | Molecule | in vitro neutralization of Group1 influenza A virus panel [8] | competition for binding of mAb 39.29 on Group1 H1 hemagglutinin stalk [9] | competition for binding with mAb 39.29 on Group2 H3 hemagglutinin stalk epitope [10] | in vitro neutralization of Group2 influenza A virus panel [11] | other results
1 | CCOC(=O)C1=C[C@@H](OC(CC)CC)[C@H](NC(C)=O)[C@@H](N)C1 [oseltamivir, oseltamivir phosphate, reference compound] |  |  |  |  | mortality ([1]; twice-daily oral 25 mg/kg for 5 days, irrespective of treatment initiation time (48 or 72 hours)): 50%
2 | B1 |  |  |  |  | efficacy at all tested doses [2]: very efficacious; in vitro neutralization of pseudotype virus expressing hemagglutinin H5 [3]: dose-dependent in vitro neutralization; IC50 [4]: 35 nM; mice protected (survival) ([5]; in vivo): 87.5% and 75%; minimum efficacious dose in vivo ([5]; iv): 15 mg/kg; IC50 [6]: 2.9 nM; efficacy at all tested doses [7]: very efficacious
3 | B2 | not able to neutralize any Group1 influenza A virus isolate tested | do not compete for binding | compete for binding | able to neutralize the entire Group2 influenza A virus panel examined | 
4 | B3 | not able to neutralize any Group1 influenza A virus isolate tested | do not compete for binding | compete for binding | able to neutralize the entire Group2 influenza A virus panel examined | 
5 | B4 | not able to neutralize any Group1 influenza A virus isolate tested | do not compete for binding | compete for binding | able to neutralize the entire Group2 influenza A virus panel examined | 
6 | B5 | effective at the in vitro neutralization of all influenza A virus strains tested |  |  | effective at the in vitro neutralization of all influenza A virus strains tested | 
7 | B6 |  | compete for binding | compete for binding |  | EC50 [9, 12]: 2.15 nM; EC50 [10, 12]: 4.21 nM
8 | B7 |  |  |  |  | survival ([1]; in vivo, iv, 25 mg/kg): 100% and 80%
9 | B8 | effective at in vitro neutralization of the entire Group1 influenza A virus panel examined |  |  | not able to neutralize Group2 influenza A virus strains | 
